For 58 variants, Kd and yeast surface expression results are on record in the FLAb antibody collection (doi:10.7554/elife.23156).

One may read the Kd as the free concentration of one partner at which half of the binding sites on the other are occupied at equilibrium, for simple one-to-one binding.

B1: scFv; the commonest letter at each place (parent)
chain 1: EVKLDETGGGLVQPGRPMKLSCVASGFTFSDYWMNWVRQSPEKGLEWVAQIRNKPYNYETYYSDSVKGRFTISRDDSKSSVYLQMNNLRVEDMGIYYCTGSYYGMDYWGQGTSVTVS
chain 2: DVVMTQTPLSLPVSLGDQASISCRSSQSLVHSNGNTYLRWYLQKPGQSPKVLIYKVSNRFSGVPDRFSGSGSGTDFTLKISRVEAEDLGVYFCSQSTHVPWTFGGGTKLEIK

In the data set “fluorescein” the parent is B1. The experiment in a line: Kd (Tite-Seq). The settings on record: with fluorescein; format: scFv 4-4-20, heavy + light.
Data set [1] covers variants of B1. The data set is described as follows: yeast surface expression (ratio to wild type); higher = more expressed. The settings on record: format: scFv 4-4-20, heavy + light.

Where only a bound is given, the exact number is not on record here.

With chain 1 Y102W, the dissociation constant Kd in the data set with fluorescein is 0.00361 µM. For the same variant, the yeast surface expression in data set [1] was found to be 0.638.

Take chain 1 Y103G Y107W: the dissociation constant Kd in the data set with fluorescein came out at 0.0221 µM. Moreover, the yeast surface expression in data set [1] was 1.21.

For chain 1 Y102H G109W, the Kd in the data set with fluorescein was ≥ 10 µM. Besides, in data set [1], the yeast surface expression amounted to 0.254.

Turning to chain 1 Y102H G109P, the Kd with fluorescein is ≥ 10 µM. In addition, the yeast surface expression in data set [1] amounted to 0.281.

As to chain 1 Y102L G104W, the Kd with fluorescein was ≥ 10 µM. Also, the yeast surface expression in data set [1] worked out at 0.263.

With chain 1 Y102L G104C, the dissociation constant Kd in the data set with fluorescein was ≥ 10 µM. The yeast surface expression in data set [1] stood at 0.323.

As for chain 1 Y102K Y107I, the Kd in the data set with fluorescein worked out at 0.0302 µM. In addition, the yeast surface expression in data set [1] was determined as 1.

Take chain 1 Y102K Y107K: the Kd with fluorescein was 6.96 µM. Besides, the yeast surface expression in data set [1] came out at 0.846.

As for chain 1 Y102K Y107H, the Kd in the data set with fluorescein turned out to be 0.0233 µM. Besides, the yeast surface expression in data set [1] was determined as 0.909.

For chain 1 Y102K Y107R, the Kd in the data set with fluorescein was 0.923 µM. For the same variant, the yeast surface expression in data set [1] is 0.991.

As for chain 1 Y102G Y103K G109K, the dissociation constant Kd with fluorescein was ≥ 10 µM. Also, in data set [1], the yeast surface expression was 0.425.

Take chain 1 Y102R Y103P: the dissociation constant (Kd) in the data set with fluorescein was ≥ 10 µM. Moreover, the yeast surface expression in data set [1] was 0.979.

Take chain 1 Y102H Y107K: the Kd with fluorescein was ≥ 10 µM. The yeast surface expression in data set [1] turned out to be 1.05.

In the case of chain 1 Y102N W108D, the dissociation constant Kd in the data set with fluorescein is ≥ 10 µM. The yeast surface expression in data set [1] is 0.259.

As for chain 1 Y102M G104M, in the data set with fluorescein, the Kd was ≥ 10 µM. Moreover, the yeast surface expression in data set [1] turned out to be 0.472.

Consider chain 1 Y102L Y107C G109A, for which the Kd with fluorescein is ≥ 10 µM. Moreover, the yeast surface expression in data set [1] was found to be 0.168.

On to chain 1 Y102K Y103L G104F, for which the Kd with fluorescein is ≥ 10 µM. Besides, the yeast surface expression in data set [1] worked out at 0.545.

With chain 1 Y102L D106G, the dissociation constant Kd with fluorescein was ≥ 10 µM. The yeast surface expression in data set [1] amounted to 0.569.

Consider chain 1 Y102L D106E, for which the equilibrium dissociation constant (Kd) with fluorescein worked out at 3.04 µM. Further, the yeast surface expression in data set [1] came to 1.26.

In the case of chain 1 Y102L D106R, in the data set with fluorescein, the dissociation constant Kd was ≥ 10 µM. Moreover, the yeast surface expression in data set [1] is 0.344.

On to chain 1 Y102L D106W, for which, in the data set with fluorescein, the dissociation constant Kd was ≥ 10 µM. Further, the yeast surface expression in data set [1] worked out at 0.238.

Take chain 1 Y102K G109I: the Kd in the data set with fluorescein was ≥ 10 µM. Further, in data set [1], the yeast surface expression was determined as 0.226.

On to chain 1 Y102K G109Y, for which the Kd with fluorescein was ≥ 10 µM. Further, the yeast surface expression in data set [1] was 0.342.

Consider chain 1 Y102S D106R, for which the Kd with fluorescein was ≥ 10 µM. The yeast surface expression in data set [1] was found to be 0.499.

As for chain 1 Y102S D106W, in the data set with fluorescein, the dissociation constant (Kd) was ≥ 10 µM. Also, in data set [1], the yeast surface expression worked out at 0.385.

Take chain 1 Y103H M105F Y107L: the Kd with fluorescein was ≥ 10 µM. Besides, the yeast surface expression in data set [1] is 0.92.

As for chain 1 Y103H G104F, in the data set with fluorescein, the dissociation constant Kd was ≥ 10 µM. The yeast surface expression in data set [1] is 0.477.

As for chain 1 Y102H M105P, the equilibrium dissociation constant (Kd) with fluorescein was ≥ 10 µM. The yeast surface expression in data set [1] is 0.764.

chain 1 Y102H M105T: the dissociation constant (Kd) with fluorescein is ≥ 10 µM. In data set [1], the yeast surface expression was found to be 0.972.

As for chain 1 Y102W G109P, the dissociation constant (Kd) with fluorescein is ≥ 10 µM. For the same variant, the yeast surface expression in data set [1] was determined as 0.245.

On to chain 1 Y102W G109V, for which, in the data set with fluorescein, the Kd is ≥ 10 µM. The yeast surface expression in data set [1] came to 0.19.

Turning to chain 1 Y102H W108M, the dissociation constant (Kd) in the data set with fluorescein was ≤ 0.000316 µM. Moreover, the yeast surface expression in data set [1] is 0.91.

Take chain 1 Y102H W108A: the Kd in the data set with fluorescein was found to be 0.0146 µM. Also, the yeast surface expression in data set [1] came out at 0.528.

For chain 1 Y102R Y107N, the dissociation constant (Kd) in the data set with fluorescein is ≥ 10 µM. For the same variant, the yeast surface expression in data set [1] is 0.81.

Turning to chain 1 Y102I W108N, in the data set with fluorescein, the Kd was ≥ 10 µM. In data set [1], the yeast surface expression is 0.316.

Consider chain 1 Y102N D106E, for which the dissociation constant (Kd) with fluorescein is ≥ 10 µM. Besides, the yeast surface expression in data set [1] is 1.27.

For the variant chain 1 Y102K Y103A D106W, the Kd with fluorescein was ≥ 10 µM. For the same variant, the yeast surface expression in data set [1] came out at 0.439.

As to chain 1 Y102S G109L, the Kd with fluorescein was ≥ 10 µM. Further, the yeast surface expression in data set [1] is 0.228.

For chain 1 Y102S G109Y, the Kd with fluorescein is ≥ 10 µM. Moreover, the yeast surface expression in data set [1] was 0.248.

chain 1 Y102S G109S: the Kd in the data set with fluorescein amounted to 0.00293 µM. In addition, the yeast surface expression in data set [1] amounted to 1.12.

On to chain 1 Y102P W108Y, for which, in the data set with fluorescein, the Kd is ≥ 10 µM. Also, in data set [1], the yeast surface expression was 0.464.

As to chain 1 Y102N G104I, the dissociation constant Kd with fluorescein was ≥ 10 µM. Moreover, in data set [1], the yeast surface expression turned out to be 0.859.

In the case of chain 1 Y102N G104Q, in the data set with fluorescein, the Kd was ≥ 10 µM. Moreover, the yeast surface expression in data set [1] worked out at 0.924.

Regarding chain 1 Y103G G109T, in the data set with fluorescein, the Kd was ≥ 10 µM. For the same variant, in data set [1], the yeast surface expression stood at 0.68.

Regarding chain 1 Y102Q G104L W108S, in the data set with fluorescein, the dissociation constant Kd is ≥ 10 µM. Moreover, the yeast surface expression in data set [1] is 0.348.

On to chain 1 Y103D G104Y, for which the dissociation constant Kd with fluorescein was ≥ 10 µM. Also, the yeast surface expression in data set [1] is 0.898.

In the case of chain 1 Y103F G104R W108Y, the Kd with fluorescein was ≥ 10 µM. Moreover, the yeast surface expression in data set [1] amounted to 0.139.

With chain 1 Y102T G104W, the Kd with fluorescein was ≥ 10 µM. In addition, the yeast surface expression in data set [1] stood at 0.638.

With chain 1 Y103I G104M, in the data set with fluorescein, the Kd is ≥ 10 µM. Moreover, the yeast surface expression in data set [1] is 0.368.

For chain 1 Y102L G109K, the Kd with fluorescein was ≥ 10 µM. For the same variant, the yeast surface expression in data set [1] amounted to 0.214.

Consider chain 1 Y102L G109N, for which, in the data set with fluorescein, the Kd was ≥ 10 µM. In addition, the yeast surface expression in data set [1] was 0.369.

For the variant chain 1 Y102L G109M, the Kd with fluorescein is ≥ 10 µM. The yeast surface expression in data set [1] stood at 0.185.

Turning to chain 1 Y102T Y103C, in the data set with fluorescein, the Kd turned out to be 0.0245 µM. Also, the yeast surface expression in data set [1] is 0.784.

With chain 1 Y102T Y103R, in the data set with fluorescein, the Kd was ≥ 10 µM. The yeast surface expression in data set [1] is 1.21.

Take chain 1 Y102T Y103W: in the data set with fluorescein, the Kd came out at 0.00785 µM. Also, in data set [1], the yeast surface expression is 0.819.

As to chain 1 Y103G M105S, in the data set with fluorescein, the equilibrium dissociation constant (Kd) is ≥ 10 µM. Moreover, the yeast surface expression in data set [1] came to 0.983.

For the variant chain 1 Y103G M105N, in the data set with fluorescein, the dissociation constant (Kd) is ≥ 10 µM. In addition, in data set [1], the yeast surface expression was determined as 1.46.

As to chain 1 Y102M M105K D106W, the dissociation constant (Kd) in the data set with fluorescein was ≥ 10 µM. Further, in data set [1], the yeast surface expression was 0.527.
